Measurements from patent US20210024651A1 (published 2021).
Values belong to the binder of their own block, whether it stands above or below them.

Columns and labels:
[1] = target: T1, His-tagged FcγRIIIa (V158) (UniProt P08637 17-208); experiment: BLI, His-tagged FcγRIIIa (V158) captured on HIS1K tips, antibody in solution
T1 construct: not shown: His tag
Procedure: Briefly, anti-Penta-HIS (HIS1K) coated biosensor tips (Pall ForteBio, USA) were used to capture His-tagged FcγRIIIa (V158) (270 nM) for 120 s. All measurements were performed at 25° C. with agitation at 1000 rpm. Association kinetic measurements for antigen binding were performed by incubating anti-HER3 antibodies at different concentrations (500 nM to 15.6 nM) for 60 s, followed by a 120 s dissociation time by transferring the biosensors into assay buffer (pH 7.2) containing wells. Sensograms were referenced for buffer effects and then fitted using the Octet QK384 user software (Pall ForteBio, USA). Kinetic responses were subjected to a global fitting using a one site binding model to obtain values for association (Kₒₙ), dissociation (Koff) rate constants and the equilibrium dissociation constant (KD). Only curves that could be reliably fitted with the software (R²>0.90) were included in the analysis.

rat HER3 = target: T2, rat HER3 (rat, UniProt Q62799 20-643, limits assumed); experiment: ELISA, plate-coated target, antibody titrated from 10 µg/ml
T2 construct: also called rat homologue of HER3; R. norvegicus HER3
T2 sequence (Q62799 20-643 limits assumed): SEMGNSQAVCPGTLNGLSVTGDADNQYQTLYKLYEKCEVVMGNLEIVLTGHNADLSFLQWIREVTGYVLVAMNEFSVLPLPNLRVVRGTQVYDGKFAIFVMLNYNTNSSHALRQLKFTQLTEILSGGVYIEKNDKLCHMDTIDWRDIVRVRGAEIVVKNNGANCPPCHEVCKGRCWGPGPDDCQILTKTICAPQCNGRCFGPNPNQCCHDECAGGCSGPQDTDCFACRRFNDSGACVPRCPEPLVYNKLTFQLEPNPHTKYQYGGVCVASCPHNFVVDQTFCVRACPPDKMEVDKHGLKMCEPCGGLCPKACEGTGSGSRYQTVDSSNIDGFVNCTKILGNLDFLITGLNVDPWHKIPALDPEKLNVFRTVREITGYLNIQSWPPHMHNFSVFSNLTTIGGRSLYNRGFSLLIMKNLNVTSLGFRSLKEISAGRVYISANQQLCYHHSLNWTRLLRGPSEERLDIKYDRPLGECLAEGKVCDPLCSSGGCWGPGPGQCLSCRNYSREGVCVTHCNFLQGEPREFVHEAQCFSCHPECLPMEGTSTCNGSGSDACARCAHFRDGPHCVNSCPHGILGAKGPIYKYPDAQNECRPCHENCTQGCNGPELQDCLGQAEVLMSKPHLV

mouse HER3 = target: T3, mouse HER3 (mouse, UniProt Q61526 20-641, limits assumed); experiment: as above
T3 construct: also called mouse homologue of HER3; M. musculus HER3
T3 sequence (Q61526 20-641 limits assumed): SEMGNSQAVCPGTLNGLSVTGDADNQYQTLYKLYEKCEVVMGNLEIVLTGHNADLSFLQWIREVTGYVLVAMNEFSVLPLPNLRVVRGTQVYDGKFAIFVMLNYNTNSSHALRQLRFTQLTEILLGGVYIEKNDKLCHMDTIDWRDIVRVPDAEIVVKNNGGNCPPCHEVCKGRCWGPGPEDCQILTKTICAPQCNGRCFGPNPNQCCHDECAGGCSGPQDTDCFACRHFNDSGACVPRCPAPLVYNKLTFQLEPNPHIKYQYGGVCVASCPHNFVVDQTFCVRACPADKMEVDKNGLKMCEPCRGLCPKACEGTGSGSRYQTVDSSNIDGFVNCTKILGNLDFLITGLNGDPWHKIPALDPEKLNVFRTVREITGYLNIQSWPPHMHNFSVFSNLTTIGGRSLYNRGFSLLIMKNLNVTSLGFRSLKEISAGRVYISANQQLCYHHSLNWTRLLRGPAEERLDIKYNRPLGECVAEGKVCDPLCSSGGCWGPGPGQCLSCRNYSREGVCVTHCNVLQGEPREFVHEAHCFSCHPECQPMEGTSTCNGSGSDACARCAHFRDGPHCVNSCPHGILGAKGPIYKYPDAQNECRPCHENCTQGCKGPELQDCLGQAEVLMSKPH

binding result [1]: binds
B1: Fc-modified anti-HER3 antibody clone 10D1 comprising GASD substitutions in CH2 region (antibody, human IgG1, kappa)
heavy: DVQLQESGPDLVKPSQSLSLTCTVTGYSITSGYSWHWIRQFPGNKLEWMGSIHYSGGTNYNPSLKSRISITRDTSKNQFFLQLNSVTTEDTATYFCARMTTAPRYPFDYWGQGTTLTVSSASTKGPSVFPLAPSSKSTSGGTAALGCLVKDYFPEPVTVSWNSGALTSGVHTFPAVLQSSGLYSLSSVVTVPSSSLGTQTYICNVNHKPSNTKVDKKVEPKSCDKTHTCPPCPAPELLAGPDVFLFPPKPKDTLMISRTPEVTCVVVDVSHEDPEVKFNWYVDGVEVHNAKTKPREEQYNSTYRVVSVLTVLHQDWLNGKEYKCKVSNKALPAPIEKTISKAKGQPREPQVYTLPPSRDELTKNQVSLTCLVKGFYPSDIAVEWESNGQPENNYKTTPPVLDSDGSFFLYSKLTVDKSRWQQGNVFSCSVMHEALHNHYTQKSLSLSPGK
light: DIVMTQSQKFMSTSVGDRVSVTCKASQIVGSNVAWYQQKPGQSPKPLIYSASYRYSGVPDRFTASGSGTDFTLTITNVQSEDLAEYFCQQYSSHPLTFGAGTKLELKRTVAAPSVFIFPPSDEQLKSGTASVVCLLNNFYPREAKVQWKVDNALQSGNSQESVTEQDSKDSTYSLSSTLTLSKADYEKHKVYACEVTHQGLSSPVTKSFNRGEC
notes: also called 10D1 GASD variant

binding result (rat HER3): binds
binding result (mouse HER3): binds
binding result [1]: binds
B2: anti-HER3 clone 10D1 IgG1 (antibody)
heavy: not shown
light: B1 light
notes: Mouse variable regions on human IgG1/kappa constant regions (chimeric); also called 10D1P; 10D1 (parental)

binding result (rat HER3): binds
binding result (mouse HER3): binds
B3: 10D1F.FcA (anti-HER3 clone 10D1_c89 IgG1) (antibody, V domains shown)
VH: QVQLQESGPGLVKPSQTLSLTCTVSGYSITSGYSWHWIRQHPGKGLEWIGSIRYSGGTDYNPSLKSLVTISADTSKNQFSLKLSSVTAADTAVYYCARMTTAPWYPFDYWGQGTTVTVSS
VL: DIQMTQSPSSVSASVGDRVTITCKASQIVGSNVAWYQQKPGKAPEPLIYSASYLYSGVPSRFSGSGSGTDFTLTISSLQPEDFATYYCQQYSSHPLTFGQGTKLEIKR
notes: also called 10D1F.A
